According to patent US20120115948A1:

Target: mitotic APC (Anaphase-Promoting Complex immunoprecipitated from mitotic Xenopus extract) (Xenopus)
Test: immunoprecipitated APC-Cdc20 resuspended in mitotic extract with TAME, beads re-isolated, Western blot

Cdc20 (endogenous Xenopus Cdc20)
half-life of dissociation: 1 min
